Source: patent US20220204603A1 (PHARMABCINE, published 2022)

B1: No. 46 anti-Ang2 antibody (IgG) (antibody, V domains shown)
VH: QVQLVESGGGLVQPGRSLRLSCAASGFTFDDCAMHWVRQAPGKGLEWVSGISGNSKNVAYADSVKGRFSISRDDAKNSLYLQMNSLRAEDTAVYYCARDPAYSQFDYWGQGTLITVSS
VL: QSALTQPPSLSATPGQRVTISCSGSSSNVGGYPVNWYQQVPGAAPKLLMYTDYKRPSGVPDRFFGSKSGTSASLAISGLQSEDEADYYCATWDDNLNGYVFGTGTKVTVLG
notes: IgG form: VH cloned into Invivogen pfusess-hchg1, VL into Invivogen pfuse2ss-hclk; also called 3C6
B2: No. 3 anti-Ang2 antibody (IgG) (antibody, V domains shown)
VH: QMQLVQSGGGLVQPGRSLKLSCAASGFSFDDYAMHWVRQAPGKGLEWVATIKDDGSQTYYVDSVKGRFTISRDNAKSSLFLQMNSLRAEDTAVYYCTTEGLMNGLHFDMWGQGTMVTVSS
VL: LVLTQPPSVSGAPGQGVTISCTGSSSNIGAGYDVHWYQQFPGTAPKLLISGNNNRPSGLPDRFSGSKSGTSASLAITGLQAEDEADYYCQSYDSRLGVVFGGGTKLTVLG
notes: IgG form: VH cloned into Invivogen pfusess-hchg1 (heavy chain constant region), VL into Invivogen pfuse2ss-hclk (light chain constant region); Expressed in Expi293F, purified on Protein A; also called 1D10
B3: No. 4 anti-Ang2 antibody (IgG) (antibody, V domains shown)
VH: QVQLVESGAEVKRPGESLRISCKTSGYSFTSYWIHWVRQMPGKELEWMGSIYPGNSDTRYSPSFQGHVTISADSSSSTAYLQWSSLKASDTAMYYCTTEGLMNGLHFDMWGQGTMVTVSS
VL: DIVMTQTPLSLPVTPGEPASISCRSSQSLLHSLGDNYLDWYLQKPGQSPQLLIYLGSKRAAGVPDRFSGSGSGTDFTLKISRVEAEDVGVYYCMQSLQTPPYTFGQGTKLEIKR
notes: IgG form: VH cloned into Invivogen pfusess-hchg1, VL into Invivogen pfuse2ss-hclk; also called 2D8
B4: No. 8 anti-Ang2 antibody (IgG) (antibody, V domains shown)
VH: QVQLVESGGGLVKPGGSLRLSCAASGFTFSSYSMNWVRQAPGKGLEWVSSISASDGATYYADSVRGRFTISRDNSRSTLYLQMNSLRAEDTAVYYCAKILAGYSGPMGGMDVWGQGTTVTVSS
VL: DIQMTQSPSSLSASVGDRVTITCRASRDISNYLAWYQQKPGKAPKSLIYGASNLQSGVSSQFSGSGSGTDFTLTINSLQPEDSATYYCQQYYSYPLTFGGGTKVDIKR
notes: IgG form: VH cloned into Invivogen pfusess-hchg1, VL into Invivogen pfuse2ss-hclk; also called 3A10
B5: No. 41 anti-Ang2 antibody (IgG) (antibody, V domains shown)
VH: QVQLVESGGGLVQPGGSLRLSCEASGFAFGRYEMNWVRQAPGKGLEWIAYIDTGGGAKVYADSVKGRFTISRDDSKNSLYLQMNSLRAEDTAVYYCTTEGLMNGLHFDMWGQGTMITVSS
VL: DIQMTQSPSTLSASVGDRVAITCRASQAISTWLAWYQQKPGKAPKLLIYTASTLESGVPSRFSGSGSGTDFTLTINSLQPDDFATYYCQQLNSYPYTFGGGTKVEIKR
notes: IgG form: VH cloned into Invivogen pfusess-hchg1, VL into Invivogen pfuse2ss-hclk; also called 2B2

What follows are binders tested against T1, human Ang2 (construct not stated) (human, UniProt O15123 19-496, limits assumed) (assay: cell-based or functional assay).
T1 sequence (looked up): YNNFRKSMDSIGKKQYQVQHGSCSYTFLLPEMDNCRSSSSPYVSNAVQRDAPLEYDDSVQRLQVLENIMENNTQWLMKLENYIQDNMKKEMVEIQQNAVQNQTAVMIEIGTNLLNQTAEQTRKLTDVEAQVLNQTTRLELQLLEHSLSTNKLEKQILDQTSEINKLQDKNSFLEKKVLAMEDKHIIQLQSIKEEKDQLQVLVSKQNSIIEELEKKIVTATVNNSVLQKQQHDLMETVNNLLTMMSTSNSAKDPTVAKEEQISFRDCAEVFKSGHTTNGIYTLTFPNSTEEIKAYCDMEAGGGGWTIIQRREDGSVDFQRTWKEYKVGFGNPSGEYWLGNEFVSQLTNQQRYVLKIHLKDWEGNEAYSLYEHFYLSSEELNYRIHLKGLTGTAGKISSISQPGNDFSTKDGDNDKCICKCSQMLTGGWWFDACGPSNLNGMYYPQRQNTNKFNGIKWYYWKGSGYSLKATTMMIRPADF
With B1 the “IC50 of Tie2 phosphorylation (Phospho-Tie2 ELISA) in human Tie2-overexpressing cells treated with human Ang2 (5 µg/ml) preincubated with antibody” value (shortened to “IC50 of Tie2 phosphorylation”) was 10.1 nM.
For B2, the “IC50 of Tie2 phosphorylation” value was 8.53 nM.
B3 was tested, and the “IC50 of Tie2 phosphorylation” value was 12.3 nM.
For B4, the “IC50 of Tie2 phosphorylation” value was 20.2 nM.
In the case of B5, the “IC50 of Tie2 phosphorylation” value is reported as 11 nM.

Each binder was assayed against T2, His-tagged human Ang1 (R&D systems, 923-AN/CF) (human, UniProt Q15389 20-498, limits assumed) (assay: binding ELISA, His-tagged human Ang1 coated at 1 µg/ml, detection with HRP anti-human IgG(kappa) [panel 'human Ang1 binding ELISA']).
T2 construct: Bought protein; also called hAng1-his; not shown: His tag
T2 sequence (looked up): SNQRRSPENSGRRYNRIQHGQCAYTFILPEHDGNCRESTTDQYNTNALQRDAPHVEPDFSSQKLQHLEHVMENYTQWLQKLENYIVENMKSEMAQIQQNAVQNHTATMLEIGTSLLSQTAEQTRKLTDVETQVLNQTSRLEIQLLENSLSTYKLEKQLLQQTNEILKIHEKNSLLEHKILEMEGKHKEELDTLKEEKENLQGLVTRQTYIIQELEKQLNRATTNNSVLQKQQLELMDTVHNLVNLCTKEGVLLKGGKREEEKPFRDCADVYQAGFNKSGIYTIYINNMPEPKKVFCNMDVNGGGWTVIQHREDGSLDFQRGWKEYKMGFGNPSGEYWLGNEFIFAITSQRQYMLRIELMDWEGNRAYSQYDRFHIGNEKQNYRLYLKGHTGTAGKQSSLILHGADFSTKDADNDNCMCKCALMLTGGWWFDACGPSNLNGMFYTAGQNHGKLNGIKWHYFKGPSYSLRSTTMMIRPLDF
Protocol: 1 μg/ml (100 μl per well) of a His-tagged human (R&D systems, 623-AN/CF) or mouse (sino, 50298-M07H) Ang2 solution or a His-tagged human (R&D systems, 923-AN/CF) or mouse (sino, 50300-M07H) Ang1 solution was added to a 96-well immunoplate (Nunc, US) and allowed to stand overnight at 4° C. for adsorption. The next day, the solution was washed three times with PBS containing 0.05% Tween-20 (hereinafter, referred to as PBST), and 200 μl of a 2% BSA/PBST solution was added to each well and then allowed to stand at room temperature for 2 hours to perform blocking. After washing three times with PBST, 100 μl of each test antibody solution was added to each well according to concentration to cause binding at room temperature for 1 hour, and then washing was performed three times with PBST, 100 μl of HRP-conjugated goat anti-human IgG(kappa) (bethyl lab #A80-115P) diluted to 1:2000 was added and allowed to react at room temperature for 1 hour, thereby inducing binding, and after washing three times with PBST, color development was performed using 100 μl of a TMB substrate reagent. The color development reaction was stopped by adding 50 μl of 2N H₂SO₄, and a Sunrise microplate reader (TECAN, CH) was used to measure specific absorbance OD₄₅₀₋₆₃₀ (FIG. 3).
B1: no binding (tested: 2 mg/ml (unit as read in the legend)).
B2: no binding (tested: 2 mg/ml (unit as read in the legend)).
B3: no binding (tested: 2 mg/ml (unit as read in the legend)).
B4: no binding (tested: 2 mg/ml (unit as read in the legend)).
B5: no binding (tested: 2 mg/ml (unit as read in the legend)).
